B1: L-fucose dehydrogenase (Homo sapiens), Q9BPX1 (parent)
chain: MATGTRYAGKVVVVTGGGRGIGAGIVRAFVNSGARVVICDKDESGGRALEQELPGAVFILCDVTQEDDVKTLVSETIRRFGRLDCVVNNAGHHPPPQRPEETSAQGFRQLLELNLLGTYTLTKLALPYLRKSQGNVINISSLVGAIGQAQAVPYVATKGAVTAMTKALALDESPYGVRVNCISPGNIWTPLWEELAALMPDPRATIREGMLAQPLGRMGQPAEVGAAAVFLASEANFCTGIELLVTGGAELGYGCKASRSTPVDAPDIPS
B2: Transcription factor 12 (Homo sapiens), Q99081-3 (parent)
chain: MNPQQQRMAAIGTDKELSDLLDFSAMFSPPVNSGKTRPTTLGSSQFSGSGIDERGGTTSWGTSGQPSPSYDSSRGFTDSPHYSDHLNDSRLGAHEGLSPTPFMNSNLMGKTSERGSFSLYSRDTGLPGCQSSLLRQDLGLGSPAQLSSSGKPGTAYYSFSATSSRRRPLHDSAALDPLQAKKVRKVPPGLPSSVYAPSPNSDDFNRESPSYPSPKPPTSMFASTFFMQDGTHNSSDLWSSSNGMSQPGFGGILGTSTSHMSQSSSYGNLHSHDRLSYPPHSVSPTDINTSLPPMSSFHRGSTSSSPYVAASHTPPINGSDSILGTRGNAAGSSQTGDALGKALASIYSPDHTSSSFPSNPSTPVGSPSPLTGTSQWPRPGGQAPSSPSYENSLHSLKNRVEQQLHEHLQDAMSFLKDVCEQSRMEDRLDRLDDAIHVLRNHAVGPSTSLPAGHSDIHSLLGPSHNAPIGSLNSNYGGSSLVASSRSASMVGTHREDSVSLNGNHSVLSSTVTTSSTDLNHKTQENYRGGLQSQSGTVVTTEIKTENKEKDENLHEPPSSDDMKSDDESSQKDIKVSSRGRTSSTNEDEDLNPEQKIEREKERRMANNARERLRVRDINEAFKELGRMCQLHLKSEKPQTKLLILHQAVAVILSLEQQVRERNLNPKAACLKRREEEKVSAVSAEPPTTLPGTHPGLSETTNPMGHM

Variants of: B1
Settings: with psa1_human PSMA1, P25786
Target sequence in this assay (P25786 whole entry): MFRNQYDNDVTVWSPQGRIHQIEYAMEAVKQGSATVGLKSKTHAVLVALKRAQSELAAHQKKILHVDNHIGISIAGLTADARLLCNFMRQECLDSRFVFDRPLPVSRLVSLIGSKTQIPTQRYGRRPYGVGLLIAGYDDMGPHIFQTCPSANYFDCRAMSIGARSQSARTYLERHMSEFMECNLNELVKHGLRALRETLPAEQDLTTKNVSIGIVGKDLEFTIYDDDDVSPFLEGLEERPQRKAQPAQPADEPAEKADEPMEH

| effect of a mutation on the interaction | Variant |
| --- | --- |
| with no effect | N31D |
| disrupting interaction strength | R130W |

Second part, the variant before the results:

| Variant | effect of a mutation on the interaction |
| --- | --- |
| A56T | with no effect |
| G16W | with no effect |

Variants of: B1
Settings: with sr1ip_human SREK1IP1, Q8N9Q2
Sequence of sr1ip_human SREK1IP1, Q8N9Q2 (Q8N9Q2 whole entry): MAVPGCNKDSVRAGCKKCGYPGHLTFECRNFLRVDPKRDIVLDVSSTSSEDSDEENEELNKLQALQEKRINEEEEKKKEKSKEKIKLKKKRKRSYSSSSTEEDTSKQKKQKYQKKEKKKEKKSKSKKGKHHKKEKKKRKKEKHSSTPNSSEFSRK

| Variant | effect of a mutation on the interaction |
| --- | --- |
| N31D | with no effect |
| R130W | disrupting interaction strength |
| A56T | with no effect |

Variants of: B1
Settings: with ntaq1_human NTAQ1, Q96HA8

| Variant | effect of a mutation on the interaction |
| --- | --- |
| N31D | with no effect |
| R130W | disrupting interaction strength |
| A56T | with no effect |

Variants of: B1
Settings: with phf1_human PHF1, O43189
Sequence of phf1_human PHF1, O43189 (O43189 whole entry): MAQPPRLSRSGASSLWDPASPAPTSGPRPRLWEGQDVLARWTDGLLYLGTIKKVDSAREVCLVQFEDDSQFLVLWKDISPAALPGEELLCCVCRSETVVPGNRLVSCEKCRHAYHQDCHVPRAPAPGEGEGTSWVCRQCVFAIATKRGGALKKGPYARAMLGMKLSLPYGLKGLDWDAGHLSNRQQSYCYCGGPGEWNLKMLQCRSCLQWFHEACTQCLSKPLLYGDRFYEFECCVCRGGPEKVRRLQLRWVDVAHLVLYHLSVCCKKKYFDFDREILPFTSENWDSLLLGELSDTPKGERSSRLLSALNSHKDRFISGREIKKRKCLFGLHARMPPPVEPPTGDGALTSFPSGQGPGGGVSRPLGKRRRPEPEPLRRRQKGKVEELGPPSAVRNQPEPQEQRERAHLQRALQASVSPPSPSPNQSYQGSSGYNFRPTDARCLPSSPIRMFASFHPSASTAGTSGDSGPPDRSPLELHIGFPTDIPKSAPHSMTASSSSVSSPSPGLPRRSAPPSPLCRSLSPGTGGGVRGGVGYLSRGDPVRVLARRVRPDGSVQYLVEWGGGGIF

| Variant | effect of a mutation on the interaction |
| --- | --- |
| N31D | with no effect |
| G16W | with no effect |

Variants of: B1
Settings: with cah8_human CA8, P35219
Sequence of cah8_human CA8, P35219 (P35219 whole entry): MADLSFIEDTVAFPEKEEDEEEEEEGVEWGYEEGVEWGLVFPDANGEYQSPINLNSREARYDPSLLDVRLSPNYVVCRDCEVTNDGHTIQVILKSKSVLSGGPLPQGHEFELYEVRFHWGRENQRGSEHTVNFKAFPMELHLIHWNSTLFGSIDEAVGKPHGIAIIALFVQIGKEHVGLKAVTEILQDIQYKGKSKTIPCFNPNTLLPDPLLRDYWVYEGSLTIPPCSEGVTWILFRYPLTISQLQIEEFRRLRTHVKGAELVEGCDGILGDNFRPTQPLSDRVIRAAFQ

| Variant | effect of a mutation on the interaction |
| --- | --- |
| N31D | with no effect |
| G16W | with no effect |

Variants of: B2
Settings: with cdn2c_human CDKN2C

| effect of a mutation on the interaction | Variant |
| --- | --- |
| with no effect | A482V |
| with no effect | R74G |
| with no effect | A155T |

Further lines, the variant ahead of its results:

| Variant | effect of a mutation on the interaction |
| --- | --- |
| N606H | with no effect |
| S446F | with no effect |

Variants of: B2
Settings: with psa1_human PSMA1, P25786
Target sequence in this assay (P25786 whole entry): as the sequence (P25786 whole entry) above

| effect of a mutation on the interaction | Variant |
| --- | --- |
| with no effect | A482V |
| with no effect | R74G |
| with no effect | A155T |

More lines, now with the values behind:

| Variant | effect of a mutation on the interaction |
| --- | --- |
| N606H | with no effect |
| S446F | with no effect |

Source: IntAct's records for PubMed 31515488
